# pKd: −log10 of the molar value.
# What was measured:
# [1] = target: DBAIg (full recombinant mouse IgG2b antibody encoding the DBA/1J Ighv1-4 germline sequence) (mouse (DBA/1J) | mouse); test: SPR
# [2] = target: M2139Ig (full recombinant mouse IgG2b antibody with the M2139 sequence) (mouse); test: SPR
substance,measurement,setting,value
triple-helical J1 peptide (synthetic peptide containing the J1 epitope of type II collagen),pKd,[1],6.56
same,koff,[1],0.00446 s⁻¹
same,kon,[1],16300 M⁻¹ s⁻¹
same,pKd,[2],7.41
same,koff,[2],0.00268 s⁻¹
same,kon,[2],68900 M⁻¹ s⁻¹

# — PMC3949579
